According to paper PMC9352680, “A comprehensive thermodynamic model for RNA binding by the Saccharomyces cerevisiae Pumilio protein PUF4”:

T1: PUF4 RNA-binding domain (Saccharomyces cerevisiae, UniProt P25339 537-888)
T1 sequence: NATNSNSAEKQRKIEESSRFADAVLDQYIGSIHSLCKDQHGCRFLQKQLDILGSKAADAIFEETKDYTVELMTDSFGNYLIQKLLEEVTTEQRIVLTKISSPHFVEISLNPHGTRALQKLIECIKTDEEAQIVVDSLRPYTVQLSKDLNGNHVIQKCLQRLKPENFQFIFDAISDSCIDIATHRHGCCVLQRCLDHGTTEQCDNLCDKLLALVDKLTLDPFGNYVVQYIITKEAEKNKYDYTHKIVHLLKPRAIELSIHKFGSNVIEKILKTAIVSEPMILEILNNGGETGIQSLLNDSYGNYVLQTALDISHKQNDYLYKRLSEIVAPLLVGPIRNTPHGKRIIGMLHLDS


biological target: T1, PUF4 RNA-binding domain; assay: Mg; RNA-MaP; 20 mM Na-HEPES pH 7.4, 30 mM KOAc, 0.75 mM MgCl2, 0.1% Tween-20, 5% glycerol, 0.1 mg/mL BSA, 2 mM DTT; 25 C; 0.0125-409.6 nM protein; conditions: tags: N-His6-TEV cleaved; C-SNAP kept, Cy3B-labelled; label: tethered on chip by stalled RNA polymerase

**Q.** Which Kd does the source give for UCUCUUCAUGUAUAUUAGUUCUCUU (ssRNA) [Id_ii_S1_P4E.2_K4.1_C4.2_[T-1A]_H4.1_A4.1_F4.1_T4.2] here?
**A.** 0.326 nM

**Q.** UCUCUUUCUAUAUAUUACGUCUCUU (ssRNA) [Id_ii_S1_P4E.3_K4.2_C4.2_[C-2T]_[T-1C]_H4.2_A4.1_F4.1_T4.2_[G10C]_[T11G]] was tested. Which Kd did it give?
**A.** 30.7 nM

**Q.** For UCUCUUUCUAUAUAUUAAGUCUCUU (ssRNA) [Id_ii_S1_P4E.3_K4.2_C4.2_[C-2T]_[T-1C]_H4.2_A4.1_F4.1_T4.2_[G10A]_[T11G]], which Kd is on record?
**A.** 130 nM

**Q.** UCUCUUUGUAUAUAUUAGCUCUCUU (ssRNA) [Id_ii_S1_P4E.3_K4.2_C4.2_[C-2T]_[T-1G]_H4.2_A4.1_F4.1_T4.2_[T11C]] was tested. Which Kd did it give?
**A.** 3.46 nM

**Q.** How did the Kd turn out when UCUCUUCUUGUAUAUUAGCUCUCUU (ssRNA) [Id_ii_S1_P4E.2_K4.1_C4.2_H4.1_A4.1_F4.1_T4.2_[T11C]] was run?
**A.** 0.287 nM

**Q.** For UCUCUUUGUAUAUAUUAGGUCUCUU (ssRNA) [Id_ii_S1_P4E.3_K4.2_C4.2_[C-2T]_[T-1G]_H4.2_A4.1_F4.1_T4.2_[T11G]], which Kd is on record?
**A.** 7.71 nM

**Q.** UCUCUUUGUAUUAGUAUCUCUU (ssRNA) [Ia_S1_P5E.1_K5.1_C5.1_H5.1_A5.1_F5.1_[T8G]_T5.1] was tested. Which Kd did it give?
**A.** 18.2 nM

**Q.** Which Kd does the source give for UCUCUUCUUGUAUAUUAACUCUCUU (ssRNA) [Id_ii_S1_P4E.2_K4.1_C4.2_H4.1_A4.1_F4.1_T4.2_[G10A]_[T11C]] here?
**A.** 0.862 nM

**Q.** UCUCUUGUUAUAUAUUAUUUCUCUU (ssRNA) [Id_ii_S1_P4E.3_K4.2_C4.2_[C-2G]_H4.2_A4.1_F4.1_T4.2_[G10T]] was tested. Which Kd did it give?
**A.** 22.3 nM

**Q.** Which Kd does the source give for UCUCUUGCUAUAUAUUACAUCUCUU (ssRNA) [Id_ii_S1_P4E.3_K4.2_C4.2_[C-2G]_[T-1C]_H4.2_A4.1_F4.1_T4.2_[G10C]_[T11A]] here?
**A.** 44.4 nM

**Q.** UCUCUUUGUAUAUAUUAGUUCUCUU (ssRNA) [Id_ii_S1_P4E.3_K4.2_C4.2_[C-2T]_[T-1G]_H4.2_A4.1_F4.1_T4.2] was tested. Which Kd did it give?
**A.** 3.67 nM

**Q.** With UCUCUUGCUAUAUAUUAAAUCUCUU (ssRNA) [Id_ii_S1_P4E.3_K4.2_C4.2_[C-2G]_[T-1C]_H4.2_A4.1_F4.1_T4.2_[G10A]_[T11A]] as the binder, how does the Kd read?
**A.** 126 nM

**Q.** How did the Kd turn out when UCUCUUUAUAUAUAUUAUCUCUCUU (ssRNA) [Id_ii_S1_P4E.3_K4.2_C4.2_[C-2T]_[T-1A]_H4.2_A4.1_F4.1_T4.2_[G10T]_[T11C]] was run?
**A.** 24.5 nM

**Q.** UCUCUUUCUAUAUAUUAAUUCUCUU (ssRNA) [Id_ii_S1_P4E.3_K4.2_C4.2_[C-2T]_[T-1C]_H4.2_A4.1_F4.1_T4.2_[G10A]] was tested. Which Kd did it give?
**A.** 39.7 nM

**Q.** For UCUCUUUCUAUAUAUUAUUUCUCUU (ssRNA) [Id_ii_S1_P4E.3_K4.2_C4.2_[C-2T]_[T-1C]_H4.2_A4.1_F4.1_T4.2_[G10T]], which Kd is on record?
**A.** 21.6 nM

**Q.** Which Kd does the source give for UCUCUUCUUGUAUAUUAAUUCUCUU (ssRNA) [Id_ii_S1_P4E.2_K4.1_C4.2_H4.1_A4.1_F4.1_T4.2_[G10A]] here?
**A.** 0.76 nM

**Q.** Which Kd does the source give for UCUCUUUCUAUAUAUUACCUCUCUU (ssRNA) [Id_ii_S1_P4E.3_K4.2_C4.2_[C-2T]_[T-1C]_H4.2_A4.1_F4.1_T4.2_[G10C]_[T11C]] here?
**A.** 25.2 nM

**Q.** With UCUCUUUGUUCAUUAUCUCUU (ssRNA) [Ib_S1_P4E.1_K4.1_C4.1_H4.1_[A4T]_A4.1_[T5C]_F4.1_T4.1] as the binder, how does the Kd read?
**A.** 21.1 nM

**Q.** With UCUCUUGCUAUAUAUUAUUUCUCUU (ssRNA) [Id_ii_S1_P4E.3_K4.2_C4.2_[C-2G]_[T-1C]_H4.2_A4.1_F4.1_T4.2_[G10T]] as the binder, how does the Kd read?
**A.** 29.8 nM

**Q.** For UCUCUUUGUCAAUUAUCUCUU (ssRNA) [Ib_S1_P4E.1_K4.1_C4.1_H4.1_[A4C]_A4.1_[T5A]_F4.1_T4.1], which Kd is on record?
**A.** 134 nM

**Q.** UCUCUUUCUAUAUAUUAUAUCUCUU (ssRNA) [Id_ii_S1_P4E.3_K4.2_C4.2_[C-2T]_[T-1C]_H4.2_A4.1_F4.1_T4.2_[G10T]_[T11A]] was tested. Which Kd did it give?
**A.** 34.9 nM

**Q.** With UCUCUUUCUAUAUAUUAAAUCUCUU (ssRNA) [Id_ii_S1_P4E.3_K4.2_C4.2_[C-2T]_[T-1C]_H4.2_A4.1_F4.1_T4.2_[G10A]_[T11A]] as the binder, how does the Kd read?
**A.** 61.2 nM

**Q.** With UCUCUUCUUGUAUAUUACCUCUCUU (ssRNA) [Id_ii_S1_P4E.2_K4.1_C4.2_H4.1_A4.1_F4.1_T4.2_[G10C]_[T11C]] as the binder, how does the Kd read?
**A.** 0.733 nM

**Q.** With UCUCUUGCUAUAUAUUAUGUCUCUU (ssRNA) [Id_ii_S1_P4E.3_K4.2_C4.2_[C-2G]_[T-1C]_H4.2_A4.1_F4.1_T4.2_[G10T]_[T11G]] as the binder, how does the Kd read?
**A.** 42 nM

**Q.** How did the Kd turn out when UCUCUUCAUGUAUAUUAGCUCUCUU (ssRNA) [Id_ii_S1_P4E.2_K4.1_C4.2_[T-1A]_H4.1_A4.1_F4.1_T4.2_[T11C]] was run?
**A.** 0.425 nM

**Q.** With UCUCUUGUUAUAUAUUACUUCUCUU (ssRNA) [Id_ii_S1_P4E.3_K4.2_C4.2_[C-2G]_H4.2_A4.1_F4.1_T4.2_[G10C]] as the binder, how does the Kd read?
**A.** 16.9 nM

**Q.** UCUCUUGCUAUAUAUUAACUCUCUU (ssRNA) [Id_ii_S1_P4E.3_K4.2_C4.2_[C-2G]_[T-1C]_H4.2_A4.1_F4.1_T4.2_[G10A]_[T11C]] was tested. Which Kd did it give?
**A.** 55 nM

**Q.** With UCUCUUUAUAUAUAUUACUUCUCUU (ssRNA) [Id_ii_S1_P4E.3_K4.2_C4.2_[C-2T]_[T-1A]_H4.2_A4.1_F4.1_T4.2_[G10C]] as the binder, how does the Kd read?
**A.** 20.6 nM

**Q.** UCUCUUUGUAUAUAUUAUCUCUCUU (ssRNA) [Id_ii_S1_P4E.3_K4.2_C4.2_[C-2T]_[T-1G]_H4.2_A4.1_F4.1_T4.2_[G10T]_[T11C]] was tested. Which Kd did it give?
**A.** 4.63 nM

**Q.** How did the Kd turn out when UCUCUUGCUAUAUAUUAUCUCUCUU (ssRNA) [Id_ii_S1_P4E.3_K4.2_C4.2_[C-2G]_[T-1C]_H4.2_A4.1_F4.1_T4.2_[G10T]_[T11C]] was run?
**A.** 38.5 nM

**Q.** With UCUCUUCUUGUAUAUUAUUUCUCUU (ssRNA) [Id_ii_S1_P4E.2_K4.1_C4.2_H4.1_A4.1_F4.1_T4.2_[G10T]] as the binder, how does the Kd read?
**A.** 0.541 nM
